{
  "source": "paper PMC6363164",
  "about": "“Structural basis of human ORP1-Rab7 interaction for the late-endosome and lysosome targeting” (PLoS ONE, 2019)",
  "conditions_in_all_cases": "both partners purified",
  "key": {"[1]": {"molecular_target": "T1, human Rab7 (residue 2-195) Q67L Δ73, GTP-bound (human, UniProt P51149 2-195, Q67L | Δ73)", "T1 construct": "Ras-related protein Rab-7a, human, UniProt P51149, residues 2-195, Q67L and deletion of Leu73 in switch II; 0.5 mM MgCl2 and GTP were added before crystallisation; also called Rab7 Q67L Δ73; Rab7 (Q67L, Δ73); source: E. coli BL21(DE3), purified (Ni-NTA, SEC)", "T1 sequence (P51149 other isoform, or with tags, fused parts or gaps Q67L | Δ73 | Q67L | Δ73 | Q67L Q67L)": "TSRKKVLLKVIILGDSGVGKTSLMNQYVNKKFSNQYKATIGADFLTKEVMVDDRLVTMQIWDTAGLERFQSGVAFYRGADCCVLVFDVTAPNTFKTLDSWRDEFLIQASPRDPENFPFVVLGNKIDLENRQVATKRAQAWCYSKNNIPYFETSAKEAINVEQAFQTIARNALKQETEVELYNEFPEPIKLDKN", "assay": "crystal structure; ORP1 ANK (5-152) with GTP- and Mg2+-bound Rab7 (2-195) Q67L Δ73; 2.1 Å; two heterodimers in the asymmetric unit"}, "[2]": {"molecular_target": "T2, human Rab7 (residue 2-195) Q67L, GTP-loaded (human, UniProt P51149 2-195, Q67L)", "T2 construct": "Ras-related protein Rab-7a, human, UniProt P51149, residues 2-195, dominant active mutant Q67L; Loaded with 0.5 mM GTP for ITC; also called Rab7 Q67L; dominant active Rab7; source: E. coli BL21(DE3), purified (Ni-NTA, SEC)", "T2 sequence (P51149 2-195 Q67L)": "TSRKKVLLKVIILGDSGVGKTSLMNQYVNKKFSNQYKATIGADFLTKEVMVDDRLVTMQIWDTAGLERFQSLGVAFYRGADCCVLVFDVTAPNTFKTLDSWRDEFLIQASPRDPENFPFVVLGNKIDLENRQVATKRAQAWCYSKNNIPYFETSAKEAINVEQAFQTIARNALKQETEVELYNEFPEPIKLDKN", "assay": "ITC; 20 °C; 20 mM Tris-HCl pH 7.5, 150 mM NaCl; 1 mM ORP1 ANK in the syringe, 0.1 mM Rab7 or Rab7-RILP in the cell; Rab7 Q67L with 0.5 mM GTP, Rab7 T22N with 0.5 mM GDP; independent binding model"}, "[3]": {"molecular_target": "T3, human Rab7 (residue 2-195) T22N, GDP-loaded (human, UniProt P51149 2-195, T22N)", "T3 construct": "Ras-related protein Rab-7a, human, UniProt P51149, residues 2-195, dominant negative mutant T22N; Loaded with 0.5 mM GDP for ITC; also called Rab7 T22N; dominant negative Rab7; source: E. coli BL21(DE3), purified (Ni-NTA, SEC)", "T3 sequence (P51149 2-195 T22N)": "as the sequence (P51149 2-195 Q67L) above, with T21N, L66Q counted along it", "assay": "ITC; 20 °C; 20 mM Tris-HCl pH 7.5, 150 mM NaCl; 1 mM ORP1 ANK in the syringe, 0.1 mM Rab7 or Rab7-RILP in the cell; Rab7 Q67L with 0.5 mM GTP, Rab7 T22N with 0.5 mM GDP; independent binding model"}},
  "data": [
    {"binder": "human ORP1 ANK domain (residue 5-152) (domain or fragment, UniProt Q9BXW6-1 5-152, looked up, The His tag was cut off with thrombin (site LVPR/GS); A longer ANK construct (5-233) was also cloned; also called small ORP1 ANK construct; source: E. coli BL21(DE3), purified (Ni-NTA, SEC); not shown: His6, N-terminal, cleaved) AEQQLLHHARNGNAEEVRQLLETMARNEVIADINCKGRSKSNLGWTPLHLACYFGHRQVVQDLLKAGAEVNVLNDMGDTPLHRAAFTGRKELVMLLLEYNADTTIVNGSGQTAKEVTHAEEIRSMLEAVERTQQRKLEELLLAAAREG", "values": [
      {"measurement": "binding result", "setting": "[1]", "value": "binds"},
      {"measurement": "Kd", "setting": "[2]", "value": 9.3, "unit": "µM"},
      {"measurement": "stoichiometry N", "setting": "[2]", "value": 1},
      {"measurement": "binding result", "setting": "[3]", "value": "binds"}
    ]}
  ]
}
